In patent US8697369B2, “Method for screening a test substance for activating a receptor associated with FGF 21 activity” (National Institute of Advanced Industrial Science and …, priority 2007, dated 2014):

How the values were obtained:
Assay type in all cases: binding
[1] = target: T1, FGF receptor subtype R2c (FGFR-Fc) (Homo sapiens, UniProt P21802); experiment: Co-precipitation of soluble betaKlotho with FGFR-Fc (protein A beads), R2c
T1 construct: adding an immunoglobulin Fc domain to the extracellular domain of an FGF receptor; purchased R&D Systems
Procedure: (§1) Moreover, the soluble betaKlotho protein and a fusion protein obtained by adding an immunoglobulin Fc domain to the extracellular domain of an FGF receptor (FGFR-Fc; manufactured by R&D Systems) were incubated, and FGFR-Fc was then precipitated using protein A beads. Whether or not betaKlotho bound to FGFR-Fc and was co-precipitated therewith was analyzed.

[2] = target: T2, FGF receptor subtype R1c (FGFR-Fc) (Homo sapiens, UniProt P11362); experiment: Co-precipitation of soluble betaKlotho with FGFR-Fc (protein A beads), R1c
T2 construct: adding an immunoglobulin Fc domain to the extracellular domain of an FGF receptor; purchased R&D Systems
T2 sequence (P11362 22-376 limits assumed): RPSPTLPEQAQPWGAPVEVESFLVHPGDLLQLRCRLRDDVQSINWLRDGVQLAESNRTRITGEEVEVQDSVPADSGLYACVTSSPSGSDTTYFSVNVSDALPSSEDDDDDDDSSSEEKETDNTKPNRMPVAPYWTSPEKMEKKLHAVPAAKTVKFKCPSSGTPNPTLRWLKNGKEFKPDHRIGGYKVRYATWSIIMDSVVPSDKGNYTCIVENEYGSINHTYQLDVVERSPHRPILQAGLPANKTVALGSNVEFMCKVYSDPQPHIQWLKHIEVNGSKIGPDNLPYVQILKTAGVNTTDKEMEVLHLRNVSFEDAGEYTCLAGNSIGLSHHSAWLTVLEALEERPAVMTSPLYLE
Procedure: as §1

[3] = target: T3, FGF receptor subtype R3c (FGFR-Fc) (Homo sapiens, UniProt P22607); experiment: Co-precipitation of soluble betaKlotho with FGFR-Fc (protein A beads), R3c
T3 construct: adding an immunoglobulin Fc domain to the extracellular domain of an FGF receptor; purchased R&D Systems
T3 sequence (P22607 23-375 limits assumed): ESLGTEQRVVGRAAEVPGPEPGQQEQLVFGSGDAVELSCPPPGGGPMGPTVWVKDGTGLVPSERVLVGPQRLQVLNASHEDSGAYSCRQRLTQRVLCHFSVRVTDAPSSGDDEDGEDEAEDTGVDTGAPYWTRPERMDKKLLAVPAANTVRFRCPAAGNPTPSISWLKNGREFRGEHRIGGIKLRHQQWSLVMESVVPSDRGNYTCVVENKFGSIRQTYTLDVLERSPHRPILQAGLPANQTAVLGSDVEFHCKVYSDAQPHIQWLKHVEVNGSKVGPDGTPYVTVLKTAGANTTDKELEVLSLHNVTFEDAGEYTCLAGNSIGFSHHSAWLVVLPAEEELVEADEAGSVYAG
Procedure: as §1

[4] = target: T4, FGF receptor subtype R4 (FGFR-Fc) (Homo sapiens, UniProt P22455); experiment: Co-precipitation of soluble betaKlotho with FGFR-Fc (protein A beads), R4
T4 construct: adding an immunoglobulin Fc domain to the extracellular domain of an FGF receptor; purchased R&D Systems
T4 sequence (P22455 22-369 limits assumed): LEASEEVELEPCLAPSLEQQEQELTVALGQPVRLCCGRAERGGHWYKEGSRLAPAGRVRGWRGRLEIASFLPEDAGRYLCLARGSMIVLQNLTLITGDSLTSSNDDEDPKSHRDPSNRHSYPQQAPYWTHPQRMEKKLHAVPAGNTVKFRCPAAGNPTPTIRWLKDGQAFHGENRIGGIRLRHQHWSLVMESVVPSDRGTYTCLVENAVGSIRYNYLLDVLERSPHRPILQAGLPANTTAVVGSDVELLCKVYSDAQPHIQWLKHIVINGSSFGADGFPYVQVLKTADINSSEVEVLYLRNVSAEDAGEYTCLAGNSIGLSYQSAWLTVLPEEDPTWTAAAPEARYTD
Procedure: as §1

Measured: co-precipitation (binding) with FGFR-Fc

T1 sequence (P21802 22-377 limits assumed): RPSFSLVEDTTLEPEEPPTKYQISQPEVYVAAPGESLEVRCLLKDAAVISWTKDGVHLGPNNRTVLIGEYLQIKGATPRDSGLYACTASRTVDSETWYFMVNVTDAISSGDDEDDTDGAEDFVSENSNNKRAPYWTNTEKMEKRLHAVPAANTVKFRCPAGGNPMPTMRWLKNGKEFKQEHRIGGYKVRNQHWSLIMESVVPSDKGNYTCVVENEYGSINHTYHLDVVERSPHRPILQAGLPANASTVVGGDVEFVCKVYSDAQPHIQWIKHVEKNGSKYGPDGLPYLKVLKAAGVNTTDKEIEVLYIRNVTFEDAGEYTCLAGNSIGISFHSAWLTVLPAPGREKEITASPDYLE

betaKlotho: soluble protein: extracellular domain of betaKlotho with V5 tag and His tag at the C-terminus
binds to all of FGF receptor subtypes: all assays above
